Test results: patent US20240116985A1 (published 2024)
Where two headings read alike, the source gives them in different places. Values belong to the binder of their own block, whether it stands above or below them. Starred links: 1 amine or outer side, 2 acyl side, 3 side chain; linkers in the order of their positions; H or OH if unused. Positions of bridges follow the written chain, without caps; N, C: chain ends. Non-standard residues stand in square brackets, D forms with d. Primed or numbered codes have the meaning given here. PyrS2″ = (S)-3-amino-1-((pent-4-en-1-yloxy)carbonyl)pyrrolidine-3-carboxylic acid (stapling residue), C=CCCCOC(=O)N1CC[C@@](N[*:1])(C(=O)[*:2])C1; B5(4) = 2,2-bis(4-pentenyl)glycine = 2-amino-2-(pent-4-en-1-yl)hept-6-enoic acid (stitching residue), C=CCCCC(CCCC=C)(N[*:1])C(=O)[*:2]; B5(5) = 2,2-bis(4-pentenyl)glycine, 2-amino-2-(pent-4-en-1-yl)hept-6-enoic acid (stitching residue), C=CCCCC(CCCC=C)(N[*:1])C(=O)[*:2]; TfeGA = (S)-2-amino-3-((carboxymethyl)(2,2,2-trifluoroethyl)amino)propanoic acid, O=C([C@H](CN(CC(=O)[*:3])CC(F)(F)F)N[*:1])[*:2]; PyrS2 = (S)-3-amino-1-((pent-4-en-1-yloxy)carbonyl)pyrrolidine-3-carboxylic acid, C=CCCCOC(=O)N1CC[C@@](N[*:1])(C(=O)[*:2])C1; Phe(3-COOH) = N[C@@H](Cc1cccc(C(=O)O)c1)C(=O)O; Phe(2-CF3) = N[C@@H](Cc1ccccc1C(F)(F)F)C(=O)O; Phe(2-Cl) = N[C@@H](Cc1ccccc1Cl)C(=O)O; Bta = N[C@@H](Cc1csc2ccccc12)C(=O)O; αAllylPro = C=CC[C@@]1(C(=O)O)CCCN1; tBuAla = CC(C)(C)C[C@H](N)C(=O)O; 3Thi = N[C@@H](Cc1ccsc1)C(=O)O; Cha = N[C@@H](CC1CCCCC1)C(=O)O; Thr(ol) = C[C@@H](O)[C@H](N)CO; Aib = CC(C)(N)C(=O)O

How the values were obtained:
Assay in all cases: cell-based or functional assay
[1] = target: T1, beta-catenin in DLD1 TCF/LEF luciferase reporter cells (UniProt P35222 1-781)
T1 sequence (looked up): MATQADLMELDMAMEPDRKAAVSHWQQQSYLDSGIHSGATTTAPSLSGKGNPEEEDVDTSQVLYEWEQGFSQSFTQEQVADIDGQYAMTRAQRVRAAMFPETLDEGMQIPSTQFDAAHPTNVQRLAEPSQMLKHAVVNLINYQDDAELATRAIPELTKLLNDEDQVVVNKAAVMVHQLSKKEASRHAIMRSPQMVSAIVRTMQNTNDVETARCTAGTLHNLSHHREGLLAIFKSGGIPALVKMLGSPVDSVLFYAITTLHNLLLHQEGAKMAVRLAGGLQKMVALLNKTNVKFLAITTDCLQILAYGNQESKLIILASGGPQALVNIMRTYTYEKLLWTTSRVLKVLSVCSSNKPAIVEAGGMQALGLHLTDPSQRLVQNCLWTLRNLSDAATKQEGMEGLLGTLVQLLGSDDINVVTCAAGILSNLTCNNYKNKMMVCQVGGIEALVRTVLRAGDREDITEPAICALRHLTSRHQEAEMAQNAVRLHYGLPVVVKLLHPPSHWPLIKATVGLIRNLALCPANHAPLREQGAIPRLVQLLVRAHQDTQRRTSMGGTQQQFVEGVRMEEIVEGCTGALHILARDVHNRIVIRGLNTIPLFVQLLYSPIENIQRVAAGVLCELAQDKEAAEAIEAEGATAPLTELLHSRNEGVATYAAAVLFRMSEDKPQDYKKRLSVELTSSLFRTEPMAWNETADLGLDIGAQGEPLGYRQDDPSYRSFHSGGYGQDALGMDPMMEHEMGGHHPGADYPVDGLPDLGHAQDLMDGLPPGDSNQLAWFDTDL

[2] = target: T2, beta-catenin in DLD1 TCF/LEF reporter cells (UniProt P35222 1-781)
T2 sequence (looked up): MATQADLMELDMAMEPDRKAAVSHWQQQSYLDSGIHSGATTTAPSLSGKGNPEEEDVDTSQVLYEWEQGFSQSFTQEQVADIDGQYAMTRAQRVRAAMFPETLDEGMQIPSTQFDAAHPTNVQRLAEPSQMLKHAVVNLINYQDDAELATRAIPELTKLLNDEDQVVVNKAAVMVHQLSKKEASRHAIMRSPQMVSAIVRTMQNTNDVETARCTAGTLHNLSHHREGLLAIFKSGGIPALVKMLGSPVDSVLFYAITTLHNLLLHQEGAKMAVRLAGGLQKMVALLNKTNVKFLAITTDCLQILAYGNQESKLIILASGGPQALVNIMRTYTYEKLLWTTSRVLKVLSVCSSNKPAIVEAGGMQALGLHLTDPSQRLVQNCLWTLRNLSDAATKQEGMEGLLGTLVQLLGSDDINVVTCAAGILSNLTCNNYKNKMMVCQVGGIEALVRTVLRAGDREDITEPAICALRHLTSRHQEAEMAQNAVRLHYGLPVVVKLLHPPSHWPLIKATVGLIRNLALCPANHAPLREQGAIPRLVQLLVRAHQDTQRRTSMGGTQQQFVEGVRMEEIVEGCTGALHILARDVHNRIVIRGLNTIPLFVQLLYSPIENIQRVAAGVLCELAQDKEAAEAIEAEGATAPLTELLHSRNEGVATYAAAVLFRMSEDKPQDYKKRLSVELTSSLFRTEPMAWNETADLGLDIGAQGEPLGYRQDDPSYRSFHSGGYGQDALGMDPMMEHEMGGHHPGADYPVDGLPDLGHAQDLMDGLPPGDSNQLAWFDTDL

B-cat-Halo [3] = target: T3, B-cat-Halo (UniProt P35222 1-781)
T3 sequence (looked up): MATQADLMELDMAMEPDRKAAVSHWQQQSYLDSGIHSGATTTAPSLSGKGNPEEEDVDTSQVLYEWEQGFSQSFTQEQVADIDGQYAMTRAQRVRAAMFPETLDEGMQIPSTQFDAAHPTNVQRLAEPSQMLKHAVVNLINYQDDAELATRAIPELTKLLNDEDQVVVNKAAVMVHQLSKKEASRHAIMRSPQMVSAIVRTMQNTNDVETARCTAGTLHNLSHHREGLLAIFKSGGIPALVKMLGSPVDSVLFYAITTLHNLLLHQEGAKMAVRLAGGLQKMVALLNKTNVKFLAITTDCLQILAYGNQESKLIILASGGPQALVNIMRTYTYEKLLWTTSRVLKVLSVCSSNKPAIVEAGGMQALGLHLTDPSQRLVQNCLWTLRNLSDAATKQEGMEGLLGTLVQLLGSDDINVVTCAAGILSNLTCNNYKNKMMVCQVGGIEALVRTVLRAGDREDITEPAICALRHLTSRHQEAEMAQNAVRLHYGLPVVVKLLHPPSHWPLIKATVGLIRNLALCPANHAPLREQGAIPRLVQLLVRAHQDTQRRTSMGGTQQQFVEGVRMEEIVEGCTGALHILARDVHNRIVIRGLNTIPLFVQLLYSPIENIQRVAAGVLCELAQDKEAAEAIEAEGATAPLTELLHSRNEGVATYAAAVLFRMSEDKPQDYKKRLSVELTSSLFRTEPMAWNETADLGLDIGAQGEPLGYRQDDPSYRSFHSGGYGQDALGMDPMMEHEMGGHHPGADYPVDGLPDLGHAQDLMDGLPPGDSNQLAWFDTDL

B-cat-Halo [4] = target: T4, B-cat-Halo (UniProt P35222 1-781); remark: listed apart in the source
T4 sequence (looked up): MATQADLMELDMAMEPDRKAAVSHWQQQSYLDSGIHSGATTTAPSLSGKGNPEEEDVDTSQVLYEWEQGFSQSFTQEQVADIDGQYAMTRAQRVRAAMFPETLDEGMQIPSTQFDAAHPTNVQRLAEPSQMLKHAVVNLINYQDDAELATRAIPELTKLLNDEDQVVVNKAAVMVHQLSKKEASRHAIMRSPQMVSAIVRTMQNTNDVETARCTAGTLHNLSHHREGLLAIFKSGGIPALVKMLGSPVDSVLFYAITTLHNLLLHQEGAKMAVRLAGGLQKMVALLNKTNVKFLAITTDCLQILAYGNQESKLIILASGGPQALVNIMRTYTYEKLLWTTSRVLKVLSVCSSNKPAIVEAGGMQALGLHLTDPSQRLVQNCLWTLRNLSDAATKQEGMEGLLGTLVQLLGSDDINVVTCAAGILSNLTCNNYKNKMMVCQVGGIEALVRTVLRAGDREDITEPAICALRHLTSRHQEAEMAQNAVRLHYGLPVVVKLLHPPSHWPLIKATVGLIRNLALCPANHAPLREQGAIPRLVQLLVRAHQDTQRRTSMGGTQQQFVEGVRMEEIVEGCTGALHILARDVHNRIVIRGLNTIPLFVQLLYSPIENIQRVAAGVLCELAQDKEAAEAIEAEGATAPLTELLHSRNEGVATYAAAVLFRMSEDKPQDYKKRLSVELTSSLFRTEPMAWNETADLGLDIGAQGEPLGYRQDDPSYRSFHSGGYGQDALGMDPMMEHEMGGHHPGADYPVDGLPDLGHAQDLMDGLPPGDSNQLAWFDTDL

DLD1 4% Abs IC50 [1]: > 20 µM
B1: I-2416 (peptide)
peptide: Ac-[αAllylPro]D[tBuAla][B5(5)]NT[Aib]AFN[PyrS2″][3Thi][Bta]T-NH2
modifications: staple 1-4, 4-11

DLD1 reporter assay Abs IC50 [2]: 3.8 µM | NanoBRET Abs IC50 (B-cat-Halo [3]): 15.7 µM
B2: I-1241 (peptide)
peptide: Ac-[αAllylPro]D[tBuAla][B5(4)]D[TfeGA]AAFT[PyrS2″][Phe(2-Cl)][Bta][Thr(ol)]
modifications: staple 1-4, 4-11

DLD1 4% Abs IC50 [1]: > 20 µM
B3: I-2413 (peptide)
peptide: Ac-[αAllylPro]D[tBuAla][B5(5)]NT[Aib]AFN[PyrS2″][3Thi][Bta]R-NH2
modifications: staple 1-4, 4-11

DLD1 4% Abs IC50 [1]: 0.8 µM
B4: I-2400 (peptide)
peptide: Ac-[αAllylPro]D[tBuAla][B5(5)]D[Phe(3-COOH)]AAFL[PyrS2][Phe(2-CF3)][Bta]QFA-NH2
modifications: staple 1-4, 4-11

DLD1 reporter assay Abs IC50 [2]: 4.9 µM | NanoBRET Abs IC50 (B-cat-Halo [3]): 11.5 µM
B5: I-1240 (peptide)
peptide: Ac-[αAllylPro]D[tBuAla][B5(4)]D[TfeGA]AAFT[PyrS2″][Phe(2-Cl)][Bta]Q-NHEt
modifications: staple 1-4, 4-11

NanoBRET Abs IC50 (B-cat-Halo [4]): > 20 µM
B6: I-2421 (peptide)
peptide: Ac-[αAllylPro]N[Cha][B5(5)]DQQAFL[PyrS2″]F[Bta]K-NH2
modifications: staple 1-4, 4-11

DLD1 4% Abs IC50 [1]: 1.5 µM
B7: I-2396 (peptide)
peptide: Ac-[αAllylPro]D[tBuAla][B5(5)]D[Phe(3-COOH)]AAFL[PyrS2][Phe(2-CF3)][Bta]QL[dL]-NH2
modifications: staple 1-4, 4-11
